Source: publication PMC5014452

Legend:
Test in all cases: EMSA
[1] = biological target: recombinant murine integrin α6β4 (Mus musculus, UniProt Q61739;A2A863 24-1011;29-712)
[2] = biological target: recombinant human integrin α6β4 (Homo sapiens, UniProt P23229;P16144 24-1050;28-710)
[3] = biological target: recombinant human integrin α6β1 (Homo sapiens, UniProt P23229;P05556 24-1050;21-728)

Measured: binding result

recombinant human integrin α6β4, sequence (P23229 24-1050, chain 1 of 2): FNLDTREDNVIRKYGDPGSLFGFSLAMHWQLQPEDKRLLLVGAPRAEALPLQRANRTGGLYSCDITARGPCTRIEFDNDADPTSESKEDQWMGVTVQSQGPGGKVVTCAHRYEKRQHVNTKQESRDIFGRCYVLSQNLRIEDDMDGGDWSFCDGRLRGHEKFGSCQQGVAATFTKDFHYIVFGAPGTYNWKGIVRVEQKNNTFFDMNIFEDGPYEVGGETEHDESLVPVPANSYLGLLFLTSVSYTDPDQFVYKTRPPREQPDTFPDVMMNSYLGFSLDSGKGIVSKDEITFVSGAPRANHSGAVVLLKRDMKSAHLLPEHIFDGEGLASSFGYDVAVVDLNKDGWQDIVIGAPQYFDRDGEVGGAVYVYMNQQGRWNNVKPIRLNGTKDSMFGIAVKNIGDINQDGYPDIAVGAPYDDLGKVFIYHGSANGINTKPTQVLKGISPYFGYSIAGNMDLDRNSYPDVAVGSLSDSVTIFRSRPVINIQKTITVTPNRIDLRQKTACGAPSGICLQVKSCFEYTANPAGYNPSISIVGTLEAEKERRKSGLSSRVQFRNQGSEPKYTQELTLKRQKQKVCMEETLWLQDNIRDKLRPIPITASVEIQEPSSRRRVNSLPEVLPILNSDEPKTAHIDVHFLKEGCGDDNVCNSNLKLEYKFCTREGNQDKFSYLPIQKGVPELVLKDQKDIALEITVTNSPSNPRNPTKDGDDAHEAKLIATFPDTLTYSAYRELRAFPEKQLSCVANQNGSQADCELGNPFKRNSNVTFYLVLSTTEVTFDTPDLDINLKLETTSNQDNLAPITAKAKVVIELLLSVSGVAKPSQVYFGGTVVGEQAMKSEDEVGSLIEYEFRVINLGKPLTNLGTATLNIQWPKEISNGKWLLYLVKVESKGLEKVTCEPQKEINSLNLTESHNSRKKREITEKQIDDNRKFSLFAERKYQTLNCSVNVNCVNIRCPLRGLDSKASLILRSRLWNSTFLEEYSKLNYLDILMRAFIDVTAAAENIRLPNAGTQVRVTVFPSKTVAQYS
recombinant human integrin α6β4, sequence (P16144 28-710, chain 2 of 2): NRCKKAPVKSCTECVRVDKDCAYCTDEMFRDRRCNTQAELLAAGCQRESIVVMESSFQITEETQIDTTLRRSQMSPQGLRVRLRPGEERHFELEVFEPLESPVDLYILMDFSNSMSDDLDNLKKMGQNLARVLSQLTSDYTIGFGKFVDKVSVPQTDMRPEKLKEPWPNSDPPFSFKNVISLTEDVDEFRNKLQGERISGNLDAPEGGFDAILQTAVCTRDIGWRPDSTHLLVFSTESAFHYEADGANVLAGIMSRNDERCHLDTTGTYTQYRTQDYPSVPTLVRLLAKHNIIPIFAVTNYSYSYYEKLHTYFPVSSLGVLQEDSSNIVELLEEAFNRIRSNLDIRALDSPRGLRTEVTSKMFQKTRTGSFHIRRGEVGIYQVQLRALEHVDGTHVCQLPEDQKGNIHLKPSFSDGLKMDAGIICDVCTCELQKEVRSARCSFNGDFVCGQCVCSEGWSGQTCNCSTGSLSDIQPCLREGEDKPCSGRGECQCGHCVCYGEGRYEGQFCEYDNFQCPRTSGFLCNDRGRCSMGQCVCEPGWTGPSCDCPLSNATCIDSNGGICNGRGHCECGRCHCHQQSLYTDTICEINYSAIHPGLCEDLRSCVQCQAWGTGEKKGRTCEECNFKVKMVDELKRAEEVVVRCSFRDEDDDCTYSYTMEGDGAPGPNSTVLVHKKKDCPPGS
recombinant human integrin α6β1, sequence (P23229 24-1050, chain 1 of 2): as the sequence (P23229 24-1050, chain 1 of 2) above
recombinant human integrin α6β1, sequence (P05556 21-728, chain 2 of 2): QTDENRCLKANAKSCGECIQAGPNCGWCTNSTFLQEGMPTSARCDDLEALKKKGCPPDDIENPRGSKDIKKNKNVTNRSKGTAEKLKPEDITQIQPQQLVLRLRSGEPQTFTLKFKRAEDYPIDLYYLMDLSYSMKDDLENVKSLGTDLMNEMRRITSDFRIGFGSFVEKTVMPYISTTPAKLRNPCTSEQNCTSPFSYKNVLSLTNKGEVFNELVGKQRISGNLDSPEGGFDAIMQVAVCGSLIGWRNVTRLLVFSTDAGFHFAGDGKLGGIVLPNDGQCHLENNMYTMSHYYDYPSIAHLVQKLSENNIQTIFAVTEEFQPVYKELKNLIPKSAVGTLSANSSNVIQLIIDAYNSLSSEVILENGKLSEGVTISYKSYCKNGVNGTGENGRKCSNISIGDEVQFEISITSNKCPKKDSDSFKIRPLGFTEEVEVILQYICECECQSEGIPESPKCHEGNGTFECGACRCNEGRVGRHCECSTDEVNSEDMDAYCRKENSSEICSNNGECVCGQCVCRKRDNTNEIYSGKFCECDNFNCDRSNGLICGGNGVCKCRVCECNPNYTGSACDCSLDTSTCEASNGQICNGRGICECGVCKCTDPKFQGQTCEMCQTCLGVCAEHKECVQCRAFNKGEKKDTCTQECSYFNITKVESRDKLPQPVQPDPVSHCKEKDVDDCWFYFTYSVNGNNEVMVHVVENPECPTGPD
recombinant murine integrin α6β4, sequence (Q61739 24-1011, chain 1 of 2): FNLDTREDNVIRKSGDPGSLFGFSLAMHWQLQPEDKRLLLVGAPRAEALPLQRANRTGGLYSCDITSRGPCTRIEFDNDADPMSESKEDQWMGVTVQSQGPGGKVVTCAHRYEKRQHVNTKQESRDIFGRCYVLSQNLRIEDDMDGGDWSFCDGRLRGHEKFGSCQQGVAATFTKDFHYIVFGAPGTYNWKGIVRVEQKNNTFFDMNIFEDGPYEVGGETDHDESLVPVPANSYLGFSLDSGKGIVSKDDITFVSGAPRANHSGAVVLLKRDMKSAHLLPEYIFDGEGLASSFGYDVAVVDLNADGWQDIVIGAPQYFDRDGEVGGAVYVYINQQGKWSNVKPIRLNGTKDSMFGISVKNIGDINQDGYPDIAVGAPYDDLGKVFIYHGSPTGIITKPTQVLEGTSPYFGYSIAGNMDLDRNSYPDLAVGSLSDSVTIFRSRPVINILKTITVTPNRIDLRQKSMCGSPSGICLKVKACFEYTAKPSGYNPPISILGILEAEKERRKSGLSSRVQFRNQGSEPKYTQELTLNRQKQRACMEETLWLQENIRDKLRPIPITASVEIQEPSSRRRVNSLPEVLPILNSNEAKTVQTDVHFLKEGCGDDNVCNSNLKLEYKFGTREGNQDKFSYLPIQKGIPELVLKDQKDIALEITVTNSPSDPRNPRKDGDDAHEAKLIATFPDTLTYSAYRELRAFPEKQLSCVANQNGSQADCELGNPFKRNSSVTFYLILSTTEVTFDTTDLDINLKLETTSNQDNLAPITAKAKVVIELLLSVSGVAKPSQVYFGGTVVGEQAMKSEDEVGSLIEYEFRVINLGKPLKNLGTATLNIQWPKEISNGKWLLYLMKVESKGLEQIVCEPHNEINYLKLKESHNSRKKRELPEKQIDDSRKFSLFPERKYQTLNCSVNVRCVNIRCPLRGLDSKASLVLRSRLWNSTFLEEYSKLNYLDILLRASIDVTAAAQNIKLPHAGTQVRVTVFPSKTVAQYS
recombinant murine integrin α6β4, sequence (A2A863 29-712, chain 2 of 2): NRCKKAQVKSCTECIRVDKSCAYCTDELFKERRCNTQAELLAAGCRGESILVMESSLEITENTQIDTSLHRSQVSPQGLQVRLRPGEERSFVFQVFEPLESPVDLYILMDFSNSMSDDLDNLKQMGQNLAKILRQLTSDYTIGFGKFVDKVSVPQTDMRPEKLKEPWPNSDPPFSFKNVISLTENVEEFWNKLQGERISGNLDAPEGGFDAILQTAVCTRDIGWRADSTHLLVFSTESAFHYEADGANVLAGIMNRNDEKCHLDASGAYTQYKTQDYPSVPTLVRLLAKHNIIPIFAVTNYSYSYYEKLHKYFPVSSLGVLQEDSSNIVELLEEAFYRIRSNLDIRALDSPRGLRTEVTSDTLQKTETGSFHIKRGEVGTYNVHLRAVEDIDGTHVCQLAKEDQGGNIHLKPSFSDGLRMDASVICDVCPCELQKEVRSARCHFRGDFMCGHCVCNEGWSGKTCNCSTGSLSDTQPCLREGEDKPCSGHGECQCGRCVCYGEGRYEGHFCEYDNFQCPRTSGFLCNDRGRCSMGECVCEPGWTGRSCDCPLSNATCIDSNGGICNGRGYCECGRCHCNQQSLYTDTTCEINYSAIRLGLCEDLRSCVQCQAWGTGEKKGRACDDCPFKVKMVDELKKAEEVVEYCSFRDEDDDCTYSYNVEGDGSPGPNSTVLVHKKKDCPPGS

B1: IDA (nc28) (ssDNA)
DNA: GCCTGTTGTGAGCCTCCTAACCGTGCGTATTCGTACTGGAACTGATATCGATGTCCCCATGCTTATTCTTGTCTCCC
binds: all assays above
